# From patent US20100278834A1
# What was measured:
# [1] = biological target: H5 hemagglutinin (HA) of H5N1 influenza A virus, strain not stated (influenza A virus (H5N1), strain not stated); assay: cross-inhibition of binding to HA; competitor: FLD194
# [2] = biological target: H5 hemagglutinin (HA) of H5N1 influenza A virus, strain not stated (influenza A virus (H5N1), strain not stated); assay: cross-inhibition of binding to HA; competitor: FLD20.19
# [3] = biological target: hemagglutinin of H5N1 clade 2.2 strain WS/Mong/244/05 (influenza A virus WS/Mong/244/05 (H5N1)); assay: cell-based or functional assay
# [4] = biological target: hemagglutinin of A/Vietnam/1203/04 (H5N1) (influenza A virus A/Vietnam/1203/04 (H5N1)); assay: cell-based or functional assay
# [5] = biological target: hemagglutinin of H5N1 clade 2.3 strain Anhui/1/05 (influenza A virus Anhui/1/05 (H5N1)); assay: cell-based or functional assay
# [6] = biological target: hemagglutinin of H5N1 clade 1 strain A/Hong Kong/213/03 (influenza A virus A/Hong Kong/213/03 (H5N1)); assay: cell-based or functional assay
# [7] = biological target: hemagglutinin of H5N1 clade 2.2 strain TY/TY/1/05 (influenza A virus TY/TY/1/05 (H5N1)); assay: cell-based or functional assay
# [8] = biological target: hemagglutinin of H5N1 clade 1 strain VN/1194.04 (influenza A virus VN/1194.04 (H5N1)); assay: cell-based or functional assay
# [9] = biological target: hemagglutinin of H5N1 clade 1 strain HK/491/97 (influenza A virus HK/491/97 (H5N1)); assay: cell-based or functional assay
# [10] = biological target: hemagglutinin of A/Indonesia/5/05 (H5N1, clade 2) (influenza A virus A/Indonesia/5/05 (H5N1)); assay: cell-based or functional assay
# [11] = biological target: H5 hemagglutinin (HA) of H5N1 influenza A virus, strain not stated (influenza A virus (H5N1), strain not stated); assay: cross-inhibition of binding to HA; competitor: FLA3.14
Binder,Inhibition of binding (%) [1] [%],Inhibition of binding (%) [2] [%],"IC50, neutralisation of retroviral pseudotypes [3] [ng/mL]","IC50, neutralisation of retroviral pseudotypes [4] [ng/mL]",Reciprocal neutralising titre of culture supernatant (reciprocal titre) [4],"IC50, neutralisation of retroviral pseudotypes [5] [ng/mL]","IC50, neutralisation of retroviral pseudotypes [6] [ng/mL]","IC50, neutralisation of retroviral pseudotypes [7] [ng/mL]","IC50, neutralisation of retroviral pseudotypes [8] [ng/mL]",Reciprocal neutralising titre of culture supernatant (reciprocal titre) [9],"IC50, neutralisation of retroviral pseudotypes [10] [ng/mL]",Reciprocal neutralising titre of culture supernatant (reciprocal titre) [10],Inhibition of binding (%) [11] [%]
"FLD84 (antibody, V domains shown) VH: QVQLQESGPGLVKPSETLSLICAVSGASISSSYWSWIRQPPGKGLEWIGYIYYSGVTKYNPSLKSRVTLSVDTSKNHFSLKLSYVTAADTAVYYCARNLPDIAVVTAVQDATPVWFDPWGPGTLVSVSS VL: DIQLTQSPSSLSASVGDRVTITCRASQGIITYLNWYQQKPGKAPKLLIYATYSLQNGVPSRFSGSGSGTDFTLTISSLQPEDFATYYCQQSYSSLMFTFGQGTKLDIK",0,100,30,42,16,118,14,32,17,40,30,102,0
"FLD93 (antibody, V domains shown) VH: WWQLVQSGAEVKKPGSSVKVSCKASGGTFSSYDISWVRQAPGQGLEWMGGIIPIYGTANYAQKFQGRVTITADESTSTAYMELSSLRSEDTAVYYCARAGGDSSGYYGALGRFFQHWGQGTLVTVSS VL: VIWMTQSPSLLSASTGDRVTISCRMSQGISSYLAWYQQKPGKAPELLIHTAYTLKSGVPSRFSGSGSGKDFTLTISGLQSEDFATYYCQQYYSFPYTFGQGTKVEIK",0,100,11,48,40,–,11,13,22,20,59,406,0
"FLD122 (antibody, V domains shown) VH: QFQLVQSGPEVKKPGTSVKVSCKASGYTSTTYGISWVRQVPGQGLEWMGWINPYNGNPHYGQKFQGRVTLTRDTSTNTAYLEILSLRSDDTAVYYCARDGWGQQLVPYYFDYWGQGTLVTVSS VL: DIVMTQSPLSLPVTPGEPASISCRASQSLLHSNGYNYLDWYLQKPGQSPQLLIQLGSTRASGVPDRFSGSGSGTDFTLEISRVEAEDVGVYYCMQALQLPLAFGQGTRLEIK",100,100,6,5,40,19,2,8,6,161,4,362,65
"FLD127 (antibody, V domains shown) VH: QVQLVESGGGVVQPGRSLRLSCAASGFTFSSYGMHWVRQAPGKGLEWVAVIWYDGDNKYYGDSVKGRFTISRDNSKNTLFLQMNSLRAEDTAVYYCAKDTADHGDYVDLGFFDAWGQGTLVTVSS VL: DIQMTQSPSSVSASVGDRVTITCRASQDVSTWLAWYQLKPGKAPKLLIYAASSLQSGVPSRFSGSGSGTDFTLTVSSLQPEDFATYYCQQANSFPFTFGPGTKVDIK",0,100,–,13,81,–,750,–,19,102,–,< 8,0
"FLD129 (antibody, V domains shown) VH: EVQLVESGGGLVQPGRSLRLSCAASGFTFSDFWMSWVRQAPGKGLEWVANIDQDGNERFYADSVKGRFTISRDNAKNSLYLQMTSLRADDTAVYYCARDGREGYFYGSGSFYNLKGLNWGQGTLLTVSS VL: QSVLTQPPSVSAAPGQRVTISCSGTSSNIGKNYVSWYQQLPGAAPKLLIYDNDKRPSGIPDRFSGSKSGTSATLGITGLQTGDEADYYCGTWDSSLSVGMFGGGTRLTVL",100,100,3,1.7,323,16,0.5,6,1.2,1450,678,< 8,0
"FLD132 (antibody, V domains shown) VH: EVQLVQSGAELKMPGESLKISCKASGYTFTNYWIGWVRQTPGKGLEWMGIIFPPDSQTSYSPSFQGQVTFSVDNSISVAYIQWSSLKASDTAIYYCARSGIFDWSAPLVEAFDIWGQGTVVTVSS VL: DIQLTQSPSFLSASVGDGVTITCRASQDIYIYLAWYQQKPGKAPKLLIYAASTLQGGVPSRFSGSGSGTEFTLTINNLQPEDFATYFCQQLNGYPLTFGGGTKVEIK",52,0,1,1,1024,1800,0.5,1,1.6,2048,–,< 8,0
"FLD20.19 (antibody, V domains shown) VH: QVQLVQSGAEVKKPGSSVTVSCKASGGTFSNYGISWVRQAPGQGLDWMGGIIPLFGTANYAQKFQGRVTITADESTSSSNMELSSLRSEDTAVYYCARDVHNYDFLTGYPLHLYGMDVWGQGTTVTVSS VL: DIQMTQSPSSLSASVGDRVTITCRASQSISTYLNWYQQKPGIPPKLLINVASSLQSGVPSRFSGSGSGTDFTLTISSLQPEDFASYYCQQTYSSPPTFGQGTKVEIK",0,100,4,16,181,104,10,10,13,181,77,813,0
"FLA3.14 (antibody, V domains shown) VH: EVQLVQSGAEVKKPGESLKISCQASGYSFTSRWIGWVRQMPGKGLEWVGFIYPSDSDVRYSPSFRGQVTISADKSISTAYLQWSSLKASDTAMYFCARLGGNKDYGDYLWYFDLWGRGALVTVSS VL: EIVMTQSPDTLSVSPGERATLSCRASQSVNRRLAWYQQKPGQAPRLLIHDASTRATGIPARFSGSGSGTEFTLTISSLQSEDFAVYYCQQYDNWLSFGQGTRLEIK",100,0,67,65,–,172,33,76,86,–,12,–,100
"FLA5.10 (antibody, V domains shown) VH: QVQLVQSGAEVKEPGSAMKVSCKASGGTFSSDAFCWVRQAPGRGLEWMGGIIPVFQTANYGPNFQGRVTISADVYTTTLYLELSGLTSEDTAVYFCARSGDGYNYYFPLWGQGTLVTVSS VL: DIQMTQSPSTLSGSVGDRVTITCRASQNIGPWLAWYQQESGKAPKLLISRASILESGVPSRFSGTGTGTEFTLTISSLQPDDFATYYCQHYNAYWGTFGQGTKVEIN",100,100,–,24,–,–,2.5,–,26,–,–,–,0
